Laboratory results from patent US20050202010A1, “Method of treatment and bioassay involving macrophage migration inhibitory factor (MIF) as cardiac-derived myocardial depressant factor” (priority 2003, published 2005).

Assays:
isolated TNFR−/− hearts = assay: Langendorff perfusion with rMIF, TNFR−/− hearts; parameters: species or system mouse
Description: (§1) Ex vivo cardiac function determination by Langendorff Mouse heart function was determined using the Langendorff assay procedure. Briefly, 200 Units heparin sulfate were injected intraperitoneally and the mice were sacrificed 20 minutes later. The heart was immediately removed and placed on ice in Krebs-Henseleit Buffer ([…], 118 mM NaCl, 4.7 mM KCL, 1.2 mM KH2PO4, 1.2 mM MgSO4, 2.5 mM CaCl2, 11.1 mM glucose, pH 7.4, which was prepared fresh with demineralized, deionized water and bubbled with 95% O2 and 5% CO2(pO2 590 mmHg, pCO2 38 mmHg)). The aorta was cannulated with PE50 tubing, the heart perfused in a retrograde manner through the aortic root with pre-filtered, oxygenated Krebs-Henseleit Buffer at a constant flow rate of 1.5 ml/minute (constant temperature of 37° C., 100 ml recirculating volume). The heart was placed in a water-jacketed chamber to maintain constant temperature and humidity. Intramedic polyethylene tubing (PE60), connected to a Statham pressure transducer, was inserted into the left ventricle (LV) to measure LV pressure. Temperature was monitored using a 27 gauge thermistor needle inserted into the LV muscle. […] Following stabilization, LV pressure and its first derivative (dP/dt), heart rate, and coronary perfusion were measured simultaneously with a multi-channel Grass 7D polygraph (Grass Instruments, Quincy, Mass.). Ventricular performance as a function of coronary perfusion was determined for all hearts by plotting peak systolic LV pressure and ±dP/dtmax values against incremental increases in coronary flow rate.
(§2) MIF has direct cardiodepressant effects in TNFR−/− mice to the same extent as in WT mice.

[1] = tested on: isolated wild type hearts; assay: Langendorff perfusion with rMIF, wild type hearts; parameters: species or system mouse; conditions: WT + rMIF 20 ng/ml
Description: as §1, §2

[2] = tested on: spontaneously beating normal mouse hearts (C57BL/6J); assay: Langendorff preparation, hearts perfused with rMIF (C57BL/6J); conditions: C57BL/6J hearts, 20 ng/ml rMIF, 1.5 ml/m
Description: Determination of cardiac function in response to rMIF. C57BL/6J and C3H/HeJ mice were used in the Langendorff assays. Briefly, 200 U heparin sulfate was given i.p., the mice sacrificed 20 m later, and the heart immediately removed and placed on ice in Krebs-Hanseleit Buffer ([…], 118 mM NaCl, 4.7 mM KCL, 1.2 mM KH2PO4, 1.2 mM MgSO4, 2.5 mM CaCl2, 11.1 mM glucose, pH 7.4, which was prepared fresh with demineralized, deionized water and bubbled with 95% O2 and 5% CO2 (PO2 590 mmHg, pCO2 38 mmHg)). The aorta was cannulated with PE50 tubing, the heart perfused in a retrograde manner through the aortic root with prefiltered, oxygenated Krebs-Hanseleit Buffer at a constant flow rate of 1.5 ml/m (T 37° C.) and a recirculating volume of 100 ml. The heart was placed in a water-jacketed chamber to maintain constant temperature and humidity. PE60 intratnedic polyethylene tubing was connected to a Statham pressure transducer inserted into the left ventricle (LV) to measure LV pressure. Temperature was monitored using a 27 G thertnistor needle inserted into the LV muscle. […] Following stabilization, LV pressure and its first derivative (dP/dt), heart rate, and coronary perfusion were measured simultaneously with a multichannel Grass 7D polygraph (Grass Instruments, Quincy, M A). Cardiac function for all hearts was determined by plotting peak systolic LV pressure and ±dP/dt,Ia, values against changes in coronary flow rate.
MIF induces systolic and diastolic cardiac dysfunction. […] Responses to MIF were determined in hearts from both C57BL/6J mice, and C3H/HeJ mice. C3H/HeJ mice are resistant to endotoxin (41-43), therefore controlling for the possibility that any depression observed might be due to trace endotoxin in the perfusate. Table 2 illustrates the responses of both mouse strains to retrograde aortic perfusion at 1.5 ml/m with control perfusate or perfusate containing 20 ng/ml recombinant MIF. Perfusion with MIF led to a significant decrease in LVP, +dP/dtmax, and −dP/dt max in both mouse strains. FIG. 4 illustrates the effect of MIF over a range of coronary flow rates. […]

B1: rMIF: recombinant human macrophage migration inhibitory factor added to the heart perfusate at 20 ng/ml (protein, UniProt P14174 2-115, looked up)
Macrophage migration …: PMFIVNTNVPRASVPDGFLSELTQQLAQATGKPPQYIAVHVVPDQLMAFGGSSEPCALCSLHSIGKIGGAQNRSYSKLLCGLLAERLRISPDRVYINYYDMNAANVGWNNSTFA
B1 gave a CPP (isolated TNFR−/− hearts; TNF KO + rMIF 20 ng/ml, n = 4) of 91.5 ± 6.6 mmHg, a CVR (isolated TNFR−/− hearts; TNF KO + rMIF 20 ng/ml, n = 4) of 61.0 ± 4.4 mmHg and a DR (isolated TNFR−/− hearts; TNF KO + rMIF 20 ng/ml, n = 4) of 1.30 ± 0.10. It also gave an HR (isolated TNFR−/− hearts; TNF KO + rMIF 20 ng/ml, n = 4) of 335 ± 20 bpm, an RT90 (isolated TNFR−/− hearts; TNF KO + rMIF 20 ng/ml, n = 4) of 71.3 ± 4.2 ms and a TPP (isolated TNFR−/− hearts; TNF KO + rMIF 20 ng/ml, n = 4) of 67.0 ± 2.4 ms. The “Time to Max +dP/dt” value (isolated TNFR−/− hearts; TNF KO + rMIF 20 ng/ml, n = 4) was 47.0 ± 2.4 ms, the “Time to Max −dP/dt” value (isolated TNFR−/− hearts; TNF KO + rMIF 20 ng/ml, n = 4) was 47.0 ± 2.4 ms and the dP40 (isolated TNFR−/− hearts; TNF KO + rMIF 20 ng/ml, n = 4) was 1613 ± 105 mmHg/sec. The “−dP/dt max” value (isolated TNFR−/− hearts; TNF KO + rMIF 20 ng/ml, n = 4) was 1413 ± 151 mmHg/sec, the LVP (isolated TNFR−/− hearts; TNF KO + rMIF 20 ng/ml, n = 4, mean ± SE) was 66.0 ± 4.7 mmHg and the “+dP/dt max” value (isolated TNFR−/− hearts; TNFR−/− + rMIF 20 ng/ml, n = 4) was 1800 ± 100 mmHg/sec. The “onset of cardiac dysfunction (systolic and diastolic)” value (isolated TNFR−/− hearts; isolated hearts (Langendorf prep), both TNFR−/− and wild type mice) was ≤ 20 min, the “+dP/dt max” value ([1]; n = 5) was 1400 ± 158 mmHg/sec and the CPP ([1]; n = 5) was 84.8 ± 8.6 mmHg. It also gave a CVR ([1]; n = 5) of 56.5 ± 5.7 mmHg, a DR ([1]; n = 5) of 1.32 ± 0.06 and an HR ([1]; n = 5) of 338 ± 10 bpm. For the same molecule, the RT90 ([1]; n = 5) was 75.2 ± 2.9 ms, the TPP ([1]; n = 5) was 71.6 ± 1.6 ms and the “Time to Max +dP/dt” value ([1]; n = 5) was 49.2 ± 0.5 ms. For the same molecule, the “Time to Max −dP/dt” value ([1]; n = 5) was 52.4 ± 1.7 ms, the dP40 ([1]; n = 5) was 1240 ± 174 mmHg/sec and the “−dP/dt max” value ([1]; n = 5) was 1070 ± 146 mmHg/sec. The LVP ([1]; n = 5, mean ± SE) was 55.6 ± 5.9 mmHg, the “+dP/dt max” value ([2]; n = 10) was 1920 ± 89 mm Hg/see and the “−dP/dt max” value ([2]; n = 10) was 1545 ± 122 mm Hg/sec. It also gave an LVP ([2]; n = 10, mean peak) of 77.9 ± 5.1 mm Hg.
